# Source: patent US20080220446A1, “Method for Detecting and/or Removing Protein and/or Peptide Comprising a Cross-Beta Structure From an Aqueous Solution Comprising a Protein” (priority 2005, published 2008)
# Experiments:
# tPA [1] = target: T1, tPA (Homo sapiens, UniProt P00750); test: Plasminogen-activation assay (tPA activation, S-2251); assay type: biochemical
# Method: Plasmin (Pls) activity was assayed as described^16. Peptides and proteins that were tested for their stimulatory ability were regularly used at 100 μg ml^−1. […] Chromogenic substrate S-2251 (Chromogenix, Instrumentation Laboratory SpA, Milano, Italy) was used to measure Pls activity. Conversion of zymogen factor XII (#233490, Calbiochem, EMD Biosciences, Inc., San Diego, Calif.) to proteolytically active factor XII (factor XIIa) was assayed by measurement of the conversion of chromogenic substrate Chromozym-PK (Roche Diagnostics, Almere, The Netherlands) by kallikrein. Chromozym-PK was used at a concentration of 0.3 mM. Factor XII, human plasma prekallikrein (#529583, Calbiochem) and human plasma cofactor high-molecular weight kininogen (#422686, Calbiochem) were used at concentrations of 1 μg ml^−1. […] Assays were performed using microtiter plates (Costar, Cambridge, Mass., USA). Peptides and proteins were tested for their ability to activate factor XII. 150 μg ml^−1 kaolin, an established activator of factor XII was used as positive control and solvent (H2O) as negative control. The conversion of Chromozym-PK was recorded kinetically at 37° C. for at least 60 minutes. Assays were done in duplicate.
# (§1) Formulated protein therapeutics were obtained from the local hospital pharmacy and were used as supplied by the manufacturers. […] Lyophilized therapeutics were dissolved according to the manufacturers recommendations. GH, zinc-insulin, Cealb and gelatin were stored at −20, 4, room temperature, 37 and 65° C. Other protein therapeutics were only kept at 4° C., and assayed for the presence of cross-β structure at shown time points. Enhancement in fluorescence of ThT and Congo red was measured with all formulated protein therapeutics. For this purpose, proteins were diluted to the indicated concentrations. […] Zinc-insulin was diluted tenfold in the activation assay, GH was diluted to a final concentration of 500 μg ml^−1. Activation of factor XII and prekallikrein by the therapeutics was tested in the chromogenic factor XII assay (see above). […] After coating, plates were blocked with Blocking Reagent (Roche Diagnostics, Almere, The Netherlands).
# (§2) To prepare structurally altered ovalbumin (OVA) with amyloid cross-β structures, purified OVA (Sigma, A-7641, lot 071k7094) was heated to 85° C. One mg ml^−1 OVA in 67 mM NaPi buffer pH 7.0, 100 mM NaCl, was heated for two cycles in PCR cups in a PTC-200 thermal cycler (MJ Research, Inc., Waltham, Mass., USA). In each cycle, OVA was heated from 30 to 85° C. at a rate of 5° C./min. Native OVA (nOVA) and heat-denatured OVA (dOVA) were tested in the ThT fluorescence assay and in the Plg-activation assay. In the fluorescence assay and in the Plg-activation assay, 25 and 100 μg ml^−1 nOVA and dOVA were tested, respectively. TEM images of nOVA and dOVA were taken to check for the presence of large aggregates.
# MSA (#126674, Calbiochem) was dissolved in 8 M urea, 100 mM Tris-HCl pH 8.2, at 10 mg ml^−1 final concentration. Dithiothreitol (DTT) was added to a final concentration of 10 mM. Air was replaced by N2 and the solution was incubated for 2 h at room temperature. Then, the solution was transferred to ice and iodoacetamide was added from a 1 M stock to a final concentration of 20 mM. […] Alkyl-MSA was dialyzed against H2O before use. […] In the ThT-fluorescence assay 25 μg ml^−1 nMSA and alkyl-MSA were tested, and in the Plg-activation assay 100 μg ml^−1 was tested. The presence of aggregates or fibrils was analyzed using TEM.
# Lyophilized sterile glucagon was dissolved at 1 mg ml^−1 in H2O with 10 mM HCl. The solution was subsequently kept at 37° C. for 24 h, at 4° C. for 14 days and again at 37° C. for 9 days. […] TEM analysis was performed to assess the presence of large multimeric structures.
# [2] = Thioflavin T fluorescence of protein solutions; assay type: physicochemical
# Method: Fluorescence of ThT—protein/peptide adducts was measured as follows. […] Fluorescence was measured at 485 nm upon excitation at 435 nm. Background signals from buffer, buffer with ThT and protein/peptide solution without ThT were subtracted from corresponding measurements with protein solution incubated with ThT. Regularly, fluorescence of Aβ was used as a positive control, and fluorescence of FP10, a non-amyloid fibrin fragment^16, was used as a negative control. Fluorescence was measured in triplicate on a Hitachi F-4500 fluorescence spectrophotometer (Ltd., Tokyo, Japan).
# as §1
# ThT fluorescence of β2GPI was measured as follows. […] CL vesicles were prepared according to an established procedure. Briefly, CL was dried under a stream of nitrogen. The lipids were resuspended to a concentration of 10 mg ml^−1 in 25 mM Tris-HCl, pH 7.3, 150 mM NaCl by vigorous agitation, using a vortex. In the ThT fluorescence assay, fluorescence of β2GPI in buffer, of CL or DXS500k in buffer, of buffer and ThT alone, and of β2GPI-CL adducts and β2GPI-DXS500k adducts, with or without ThT, was recorded as described above (section ThT fluorescence). In addition, TEM images were recorded with CL, β2GPI from human plasma, with or without CL, and with recombinant β2GPI, as described^5.
# as §2
# MSA (#126674, Calbiochem) was dissolved in 8 M urea, 100 mM Tris-HCl pH 8.2, at 10 mg ml^−1 final concentration. Dithiothreitol (DTT) was added to a final concentration of 10 mM. Air was replaced by N2 and the solution was incubated for 2 h at room temperature. Then, the solution was transferred to ice and iodoacetamide was added from a 1 M stock to a final concentration of 20 mM. […] In the ThT-fluorescence assay 25 μg ml^−1 nMSA and alkyl-MSA were tested, and in the Plg-activation assay 100 μg ml^−1 was tested. The presence of aggregates or fibrils was analyzed using TEM. […]
# tPA [3] = target: T1, tPA; test: tPA binding assay with immobilized biopharmaceuticals in an ELISA; settings: coated 1:10, one-site binding model
# Method: Plates were washed twice with Tris buffered saline pH 7.2 containing 0.1% Tween20 (TBST) and blocked with PBS containing 1% Tween20 for 1 hour at room temperature. […] Plates were washed five times with TBST and incubated with peroxidase labeled anti-mouse immunoglobulins (RAMPO; DAKOCytomation, Glostrup, Denmark) diluted 1:3000 in PBST for 30 minutes at room temperature. Plates were washed five times with PBS 0.1% Tween20, and stained with 100 μL/well of tetramethyl-benzidine (TMB) substrate (Biosource Europe, Nivelles, Belgium). The reaction was terminated with 50 μL/well of 2 M H2SO4 and substrate conversion was read at 450 nm on a Spectramax340 microplate reader. Curves were fitted with a one-site binding model (GraphPad Prism version 4.02 for Windows, Graphpad Software, Calif., USA) from which Kd and Bmax were determined.
# Protein therapeutics were obtained from the local hospital pharmacy and analyzed within the expiry limits as stated by the manufacturers.
# T1 sequence (P00750 36-562): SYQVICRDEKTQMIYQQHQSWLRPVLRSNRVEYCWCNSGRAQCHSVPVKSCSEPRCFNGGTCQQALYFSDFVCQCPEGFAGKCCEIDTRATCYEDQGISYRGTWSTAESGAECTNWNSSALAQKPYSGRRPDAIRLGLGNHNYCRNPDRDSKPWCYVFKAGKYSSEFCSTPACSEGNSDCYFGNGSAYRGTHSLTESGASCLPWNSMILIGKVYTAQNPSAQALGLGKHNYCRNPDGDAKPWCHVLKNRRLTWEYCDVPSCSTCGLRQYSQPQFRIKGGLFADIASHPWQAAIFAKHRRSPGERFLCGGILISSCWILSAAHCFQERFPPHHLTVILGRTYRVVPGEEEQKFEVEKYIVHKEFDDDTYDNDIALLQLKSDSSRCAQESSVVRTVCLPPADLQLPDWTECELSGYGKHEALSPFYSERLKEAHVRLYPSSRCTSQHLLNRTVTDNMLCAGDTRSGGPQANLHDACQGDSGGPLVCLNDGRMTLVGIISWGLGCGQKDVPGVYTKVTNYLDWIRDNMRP
Pls activity (tPA activating properties) (tPA [1]; after storage at 65° C.),tPA Binding Bmax (tPA [3]),tPA activation (tPA [1]; protein solutions stored at 4° C.),Kd (tPA [3]),Substance,enhancement of ThT fluorescence ([2]; after storage at 65° C.),enhancement of ThT fluorescence ([2]; stored at 4° C.)
induced Pls activity,0.5329 OD450 nm,–,–,"Abciximab: abciximab, an inhibitor of blood platelet aggregation (ReoPro, Centocor)",enhanced ThT fluorescence,–
–,0.9369 OD450 nm,induced tPA activation,9.05 nM,"Somatropin: human growth hormone (Genotropin, Pharmacia)",–,enhance fluorescence of ThT
